Reference: patent US20230310631A1, “THERAPEUTIC USE OF GLUCAGON DERIVATIVE OR CONJUGATE THEREOF FOR LIVER DISEASE” (HANMI PHARM. CO., LTD., priority 2020, published 2023)
Bridge positions count the residues as written; N and C are the ends. Square brackets hold non-standard residues; d marks the D form. Ends that are not written are not given here. Aib = CC(C)(N)C(=O)O

Molecular target: human glucagon receptor (human, UniProt P47871 26-477)
Test: cell-based or functional assay

human glucagon receptor, sequence (P47871 26-477): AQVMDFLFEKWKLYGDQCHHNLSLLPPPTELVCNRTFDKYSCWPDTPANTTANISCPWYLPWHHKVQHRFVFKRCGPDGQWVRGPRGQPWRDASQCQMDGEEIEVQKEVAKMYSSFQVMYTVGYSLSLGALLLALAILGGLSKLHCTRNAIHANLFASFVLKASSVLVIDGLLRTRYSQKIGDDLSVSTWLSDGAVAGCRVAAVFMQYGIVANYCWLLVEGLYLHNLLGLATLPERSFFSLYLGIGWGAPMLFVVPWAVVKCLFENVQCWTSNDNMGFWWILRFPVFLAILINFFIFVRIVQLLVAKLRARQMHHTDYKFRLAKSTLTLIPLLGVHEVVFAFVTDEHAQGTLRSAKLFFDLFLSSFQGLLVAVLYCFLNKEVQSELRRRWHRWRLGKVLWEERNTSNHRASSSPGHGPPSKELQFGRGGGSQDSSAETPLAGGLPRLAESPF

Row | Binder | In vitro Activity (relative activity to SEQ ID NO: 1, %); cAMP assay, from EC50 [%]
1 | W[Aib]QGTFTSDYSKCLDERRAKDFVQWLMNT (lactam 16-20) [glucagon derivative of SEQ ID NO: 30] | 0.3
2 | Y[Aib]QGTFTSDYSKCLDERRAKDFVQWLMNT (lactam 16-20) [glucagon derivative of SEQ ID NO: 29] | 61.3
3 | Y[Aib]QGTFTSDYSKYLDSCDADDFVVWLINT [glucagon derivative of SEQ ID NO: 10] | < 0.1
4 | Y[Aib]QGTFTSDYSKYLDEKCAKEFVQWLMNT (not fully specified (bridges)) [glucagon derivative of SEQ ID NO: 11] | 4.6
5 | HSQGTFTSDYSKYLDCDRAQDFVQWLMNT [glucagon derivative of SEQ ID NO: 2] | 0.6
6 | HSQGTFTSDYSKYLDSCDAQDFVQWLMNT [glucagon derivative of SEQ ID NO: 4] | < 0.1
7 | Y[Aib]QGTFTSDYSKYLDECRAKEFVQWLMNT (lactam 16-20) [glucagon derivative of SEQ ID NO: 20] | 300
8 | Y[Aib]QGTFTSDYSKYLDCRRAQVFVQWLMRT [glucagon derivative of SEQ ID NO: 16] | 4.2
9 | Y[Aib]QGTFTSDYSKYLDEKRAKCFVQWLMNT (lactam 16-20) [glucagon derivative of SEQ ID NO: 25] | 46.9
10 | HSQGTFTSDYSKYLDSCEAQDFVQWLMNT [glucagon derivative of SEQ ID NO: 5] | 0.3
11 | Y[Aib]QGTFVSDYSKYLDECRAKDFVQWLMNT (lactam 16-20) [glucagon derivative of SEQ ID NO: 27] | 93.6
12 | HSQGTFTSDYSKYLDSCEADDFVQWLMNT [glucagon derivative of SEQ ID NO: 6] | < 0.1
13 | Y[Aib]QGTFTSDYSKYLDCKRAKEFVQWLMNT (lactam 17-21) [glucagon derivative of SEQ ID NO: 31] | 6.3
14 | HSQGTFTSDYSKYLDCERAQDFVQWLMNT [glucagon derivative of SEQ ID NO: 3] | 6.1
15 | Y[Aib]QGTFTSDYSKYLDCKRAKEFVQWLMNT (not fully specified (bridges)) [glucagon derivative of SEQ ID NO: 14] | 18.1
16 | Y[Aib]QGTFTSDYSCYLDSRRAQDFVQWLMNT [glucagon derivative of SEQ ID NO: 13] | 5.2

Row | Binder | In vitro Activity (relative activity to SEQ ID NO: 1, %); cAMP assay, from EC50 [%]
17 | Y[Aib]QGTFTSDYSKYLDSCDAQDFVQWLINT [glucagon derivative of SEQ ID NO: 8] | < 0.1
18 | Y[Aib]QGTFTSDYSKYCDEKRAKEFVQWLMNT (lactam 16-20) [glucagon derivative of SEQ ID NO: 23] | 76.8
19 | Y[Aib]QGTFTSDYSKYLCEKRAQDFVVWLMNT [glucagon derivative of SEQ ID NO: 15] | 1.1
20 | Y[Aib]QGTFTSDYSKCLDEKRAKEFVQWLMNT (lactam 16-20) [glucagon derivative of SEQ ID NO: 24] | 58
21 | W[Aib]QGTFVSDYSKYLDECRAKDFVQWLMNT (lactam 16-20) [glucagon derivative of SEQ ID NO: 28] | < 0.1
22 | W[Aib]QGTFTSDYSKYLDECRAKDFVQWLMNT (lactam 16-20) [glucagon derivative of SEQ ID NO: 26] | 1
23 | Y[Aib]QGTFTSDYSKYLDEKRAKEFVQWLMNTC (lactam 16-20) [glucagon derivative of SEQ ID NO: 12] | 56.3
24 | Y[Aib]QGTFTSDYSKYLCEKRAKEFVQWLMNT (lactam 16-20) [glucagon derivative of SEQ ID NO: 19] | 12.1
25 | Y[Aib]QGTFTSDYSKYLDSCDAQDFVVWLINT [glucagon derivative of SEQ ID NO: 9] | < 0.1
26 | YSQGTFTSDYSKYLDSCEADDFVQWLMNT [glucagon derivative of SEQ ID NO: 7] | < 0.1
27 | Y[Aib]QGTFTSDYSKYLDEKCAKEFVQWLMNT (lactam 16-20) [glucagon derivative of SEQ ID NO: 21] | 57.8
28 | Y[Aib]QGTFTSDYSKYLDEKRCKEFVQWLMNT (lactam 16-20) [glucagon derivative of SEQ ID NO: 22] | 148
29 | Y[Aib]QGTFTSDYSKYLDSRRACDFRLWLMNT [glucagon derivative of SEQ ID NO: 18] | < 0.1
30 | Y[Aib]QGTFTSDYSKYLDCVRAQDFVQWLMRT [glucagon derivative of SEQ ID NO: 17] | 23.2
31 | SQGTFTSDYSKYLDECRAKEFVQWLMNT (lactam 15-19) [glucagon derivative of SEQ ID NO: 32] | 0.7

Further lines, results first:

Row | In vitro Activity (relative activity to SEQ ID NO: 1, %); cAMP assay, from EC50 [%] | Binder
32 | 17.7 | Y[Aib]QGTFTSDYSKYCDERRAKEFVQWLMNT (lactam 16-20) [glucagon derivative of SEQ ID NO: 35]
33 | 40.8 | Y[Aib]QGTFVSDYSKYLDERRAKDFVQWLMNTC (lactam 16-20) [glucagon derivative of SEQ ID NO: 40]
34 | 75.4 | YXQGTFTSDYSKYLDSRRAQDFVQWLMNTC (X at position 2 = aminoisobutyric acid (Aib)) [glucagon derivative of SEQ ID NO: 44]
35 | 108 | YXQGTFTSDYSKYLDSRRAQDFVQWLMNT (X at position 2 = aminoisobutyric acid (Aib)) [glucagon derivative of SEQ ID NO: 33]
36 | 167 | Y[Aib]QGTFCSDYSKYLDERRAKEFVQWLMNT (lactam 16-20) [glucagon derivative of SEQ ID NO: 38]
37 | 37.9 | Y[Aib]QGTFCSDYSKYLDSRRAQDFVQWLMNT [glucagon derivative of SEQ ID NO: 42]
38 | 3.7 | Y[Aib]QGTFVSDCSKYLDERRAKDFVQWLMNT (lactam 16-20) [glucagon derivative of SEQ ID NO: 39]
39 | 45.2 | Y[Aib]QGTFCSDYSKYLDERRAKDFVQWLMNT (lactam 16-20) [glucagon derivative of SEQ ID NO: 41]
40 | 0.2 | W[Aib]QGTFTSDYSKYCDERRAKEFVQWLMNT (lactam 16-20) [glucagon derivative of SEQ ID NO: 34]
41 | 1.6 | Y[Aib]QGTFTSDCSKYLDSRRAQDFVQWLMNT [glucagon derivative of SEQ ID NO: 43]
42 | 5.2 | Y[Aib]QGTFTSDYSCYLDEKRAKEFVQWLMNT [glucagon derivative of SEQ ID NO: 45]
43 | 9.9 | Y[Aib]QGTFTSDCSKYLDERRAKEFVQWLMNT (lactam 16-20) [glucagon derivative of SEQ ID NO: 36]
44 | 226 | Y[Aib]QGTFTSDYSKYLDERRAKEFVQWLMNTC (lactam 16-20) [glucagon derivative of SEQ ID NO: 37]
